Source: patent publication US20250206820A1
Positions count from the first letter of the chain named.

B1: 16C5 Fab coupled with CD3 scFv 1G4 (bispecific antibody, part only; not given: CD3 scFv 1G4, V domains shown, part only)
VH: EVQLQQSGPELVKPGASVKISCKASGYTFTDYNMDWVKQSHGKSLEWIGYIYPSNGGTGYNQKFKSKATLTVDKSSNTAYMELHSLTSEDSAVYYCARVPYYDYLYYYAMDYWGQGTSVTVSS
VL: QIVLSQSPAILSASPGEKVTMACRASSSVSFMHWYQQKPGSSPQPWIYATSNLASGVPARFSGSGSGTSYSLTISRVEAEDAATYYCQQWSTNPYMYTFGGGTKLEIK
B2: 12A12 Fab coupled with CD3 scFv 2B2 (bispecific antibody, part only; not given: CD3 scFv 2B2, V domains shown, part only)
VH: B1 VH with S54N, K65N, N77S, R98S, V99S, L105V, Y106G, Y107S
VL: QIVLTQSPAIMSASLGERVTMTCTASSSVSSSYLHWYQQKPGSSPKLWIYSTSNLASGVPARFSGSGSGTSYSLTISSMEAEDAATYYCHQYHRSPRTFGGGTKLEIK
B3: 12A12 Fab coupled with CD3 scFv 1G4 (bispecific antibody, part only; not given: CD3 scFv 1G4, V domains shown, part only)
VH: B1 VH with S54N, K65N, N77S, R98S, V99S, L105V, Y106G, Y107S
VL: B2 VL
B4: Hz45G10 Fab coupled with CD3 scFv 1G4 (bispecific antibody, part only; not given: CD3 scFv 1G4, V domains shown, part only)
VH: EVQLVESGGGLVQPGGSLRLSCAASGFTFSDYGMHWVRQAPGKGLEWVAYIFSGSSTIYYADTVKGRFTISRDNAKNSLYLQMNSLRAEDTAVYYCARADGRGAMDYWGQGTLVTVSS
VL: DIQMTQSPSSLSASVGDRVTITCRASQDISKFLNWYQQKPGKAPKLLIYYTSRLHSGVPSRFSGSGSGTDFTFTISSLQPEDIATYFCQQGNTLPWTFGGGTKLEIK
B5: 53F10 Fab coupled with CD3 scFv 2B2 (bispecific antibody, part only; not given: CD3 scFv 2B2, V domains shown, part only)
VH: EVQVVESGGGLVKPGGSLKLSCAASGFTFSDYGMHWVRQAPEKGLEWVAYISTGIITVYYADTVKGRFTMSRDNAKNTLFLQMTSLRSEDTAIYYCARADGRGAMDYWGQGTSVIVSS
VL: DIQMTQTTSSLSASLGDRVTISCRASQDISNFLNWYQQKPDGTVTLLIYYTSRLHSGVPSRFSGSGSGTDYSLTISNLEQEDFATYFCQQGNTLPWTFGGGTKLEIK
B6: 53F10 Fab coupled with CD3 scFv 1G4 (bispecific antibody, part only; not given: CD3 scFv 1G4, V domains shown, part only)
VH: B5 VH
VL: B5 VL
B7: 48A6 Fab coupled with CD3 scFv 2B2 (bispecific antibody, part only; not given: CD3 scFv 2B2, V domains shown, part only)
VH: EVQLVESGGDLMKPGGSLKLSCAASGFTFSSYGMSWVRQTPDKRLEWVATISSGGTYTFYPDSVKGRFTISRDNAKNTLYLQMSSLKSEDTAMYYCARRGWLLHYYAMDYWGQGTSVTVSS
VL: NIVLTQSPASLAVSLGQRATISCRPSESVDSFGNSFMHWFQQKPGQPPKLLIYLSSKLESGVPARFSGSGSRTDFTLTIDPVEADDAATYYCQQHNEDPFTFGSGTKLEIK
B8: 3A3 Fab coupled with CD3 scFv 2B2 (bispecific antibody, part only; not given: CD3 scFv 2B2, V domains shown, part only)
VH: QVQLKESGPGLVAPSQSLSITCTVSGFSLTSYGVHWVRQPPGKGLEWLGVIWPGGTINYNSALMSRLSISKDNSKSQVFLKLNSLQTDDTAMYYCASDKYDGGWFAYWGQGTLVTVSA
VL: DIVMTQSQKFMSTSVGDRVSITCKASQNVRTAVAWYQQKPGQSPEALIYLASNRHTGVPDRFTGSGSGTDFSLSISNVQSEDLADYFCLQHLNYPLTFGSGTKLEIK
B9: 16C5 Fab coupled with CD3 scFv 2B2 (bispecific antibody, part only; not given: CD3 scFv 2B2, V domains shown, part only)
VH: B1 VH
VL: B1 VL
B10: 48A6 Fab coupled with CD3 scFv 1G4 (bispecific antibody, part only; not given: CD3 scFv 1G4, V domains shown, part only)
VH: B7 VH
VL: B7 VL
B11: 3A3 Fab coupled with CD3 scFv 1G4 (bispecific antibody, part only; not given: CD3 scFv 1G4, V domains shown, part only)
VH: B8 VH
VL: B8 VL

Molecular target: ILT3 on target cells (MOLM13, OCI-AML-2, NALM-1, THP-1, MM1S, H929, U226B1 and other lines) (human) (UniProt Q8NHJ6)
Test: cell-based or functional assay

Chain of ILT3 on target cells (MOLM13, OCI-AML-2, NALM-1, THP-1, MM1S, H929, U226B1 and other lines) (human) (Q8NHJ6 22-448, one chain of several): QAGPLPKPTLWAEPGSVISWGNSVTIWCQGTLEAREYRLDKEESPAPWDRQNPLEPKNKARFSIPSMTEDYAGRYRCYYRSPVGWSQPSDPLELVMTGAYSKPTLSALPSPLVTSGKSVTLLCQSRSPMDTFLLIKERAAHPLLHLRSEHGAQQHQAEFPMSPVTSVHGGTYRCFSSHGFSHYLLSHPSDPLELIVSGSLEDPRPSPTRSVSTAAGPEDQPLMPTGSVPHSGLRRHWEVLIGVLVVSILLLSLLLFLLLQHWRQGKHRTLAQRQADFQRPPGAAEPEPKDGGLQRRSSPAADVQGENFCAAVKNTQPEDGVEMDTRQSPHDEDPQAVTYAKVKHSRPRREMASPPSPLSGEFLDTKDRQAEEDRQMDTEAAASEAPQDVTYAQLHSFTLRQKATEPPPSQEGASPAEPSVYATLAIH

Row | Binder | TDCC, EC50 [nM] | TNF-α, EC50 (nM), cytokine release in the TDCC co-culture [nM]
1 | B1 | 50.1 | –
2 | B2 | 3.16 | 2510
3 | B3 | 251 | –
4 | B4 | 1.26 | –
5 | B5 | 0.013 | 2
6 | B6 | 2 | –
7 | B7 | 0.025 | 2.51
8 | B8 | 0.4 | 79.4
9 | B9 | 3.16 | 398
10 | B10 | 0.5 | –
11 | B11 | 50.1 | –
